From the supplement of paper PMC10567573

B1: FBXO3 (parent)
chain: HDPLWRRHCKKYWLISEEEKTQKN

Variants of: B1
Assay: protein stability index of a GFP-peptide fusion (GPS, HEK-293T) (PSI 1-6); higher = more stable
Conditions: c terminus: a fixed tail appended
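Note: lentivirally expressed fusions sorted by FACS into six bins by GFP to DsRed ratio, PSI derived from sequencing read proportions per bin multiplied by bin number.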

Row | Variant | protein stability index
1 | HDPLWRRHCKKYSLISEEEKTQKN [W13S] | 3.97
2 | HDPLWRRHCKKYGLISEEEKTQKN [W13G] | 4.26
3 | HDPLWRRHCKKYDLISEEEKTQKN [W13D] | 4.38
4 | HDPLWRRHCKKYFLISEEEKTQKN [W13F] | 3.85
5 | HDPLWRRHCKKYILISEEEKTQKN [W13I] | 3.91
6 | HDPLWRRHCKKYVLISEEEKTQKN [W13V] | 3.85
7 | HDPLWRRHCKKYLLISEEEKTQKN [W13L] | 3.84
8 | HDPLWRRHCKKYPLISEEEKTQKN [W13P] | 4.21
9 | HDPLWRRHSKKYWLISEEEKTQKN [C9S] | 3.27
10 | HDPLWRRHMKKYWLISEEEKTQKN [C9M] | 2.55
11 | HDPLWRRHQKKYWLISEEEKTQKN [C9Q] | 3.9
12 | HDPLWRRHEKKYWLISEEEKTQKN [C9E] | 4.37
13 | HDPLWRRHAKKYWLISEEEKTQKN [C9A] | 3.57
14 | HDPLWRRHTKKYWLISEEEKTQKN [C9T] | 3.7
15 | HDPLWRRHCKKYWLISEIEKTQKN [E18I] | 2.46
16 | HDPLWRRHCKKYWLISEKEKTQKN [E18K] | 3.04
17 | HDPLWRRHCKKYWLISEMEKTQKN [E18M] | 2.28
18 | HDPLWRRHCKKYWLISEWEKTQKN [E18W] | 2.38
19 | HDPLWRRHCKKYWLISEVEKTQKN [E18V] | 2.5
20 | HDPLWRRHCKKYWLISESEKTQKN [E18S] | 3.01
21 | HDPLWRRHCKKYWLISEAEKTQKN [E18A] | 2.55
22 | HDPLWRRHCKKYWLISEREKTQKN [E18R] | 2.81
23 | HDPLWRRHCKKYWLISEEEKTAKN [Q22A] | 3.29
24 | HDPLWRRHCKKYWLISEEEKTEKN [Q22E] | 3.42

Row | Variant | protein stability index
25 | HDPLWRRHCKKYWLISEEEKTMKN [Q22M] | 3.01
26 | HDPLWRRHCKKYWLISEEEKTDKN [Q22D] | 3.35
27 | HDPLWRRHCKKYWLISEEEKTLKN [Q22L] | 2.57
28 | HDPLWRRHCKKYWLISEEEKTWKN [Q22W] | 2.05
29 | HDPLWRRHCKKYWLISEEEKTTKN [Q22T] | 3.42
30 | HDPLWRRHCKKYWLISEEEKTPKN [Q22P] | 3
31 | HDPLWRRHCKKYWFISEEEKTQKN [L14F] | 3
32 | HDPLWRRHCKKYWRISEEEKTQKN [L14R] | 3.3
33 | HDPLWRRHCKKYWTISEEEKTQKN [L14T] | 3.65
34 | HDPLWRRHCKKYWLISEEVKTQKN [E19V] | 2.67
35 | HDPLWRRHCKKYWLISEENKTQKN [E19N] | 2.88
36 | HDPLWRRHCKKYWLISEEQKTQKN [E19Q] | 3.26
37 | HDPLWRRHCKKYWLISEEMKTQKN [E19M] | 2.66
38 | HDPLWRRHCKKYWLISEEDKTQKN [E19D] | 3.17
39 | HDPLWRRHCKKYWLISEECKTQKN [E19C] | 2.84
40 | HDPLWRRHCKKYWLISEEFKTQKN [E19F] | 2.04
41 | HDPLWRRHCKKYWLISEEIKTQKN [E19I] | 2.38
42 | HDPLWRRHCKKYWLISEELKTQKN [E19L] | 2.35
43 | HDPLWRRHCKKYWLISEEAKTQKN [E19A] | 2.83
44 | HDPLWRRHCKKYWLISEERKTQKN [E19R] | 2.94
45 | HDPLWFRHCKKYWLISEEEKTQKN [R6F] | 2.84
46 | HDPLWMRHCKKYWLISEEEKTQKN [R6M] | 3.58
47 | HDPLWLRHCKKYWLISEEEKTQKN [R6L] | 2.89
48 | HDPLWYRHCKKYWLISEEEKTQKN [R6Y] | 2.7

Row | Variant | protein stability index
49 | HDPLWNRHCKKYWLISEEEKTQKN [R6N] | 3.85
50 | HDPLWQRHCKKYWLISEEEKTQKN [R6Q] | 3.54
51 | HDPLWVRHCKKYWLISEEEKTQKN [R6V] | 2.98
52 | HDPLWHRHCKKYWLISEEEKTQKN [R6H] | 3.51
53 | HDPLWCRHCKKYWLISEEEKTQKN [R6C] | 3.35
54 | HDPLWPRHCKKYWLISEEEKTQKN [R6P] | 1.82
55 | MDPLWRRHCKKYWLISEEEKTQKN [H1M] | 3.32
56 | PDPLWRRHCKKYWLISEEEKTQKN [H1P] | 3.74
57 | VDPLWRRHCKKYWLISEEEKTQKN [H1V] | 3.38
58 | QDPLWRRHCKKYWLISEEEKTQKN [H1Q] | 3.13
59 | DDPLWRRHCKKYWLISEEEKTQKN [H1D] | 4.12
60 | EDPLWRRHCKKYWLISEEEKTQKN [H1E] | 3.84
61 | FDPLWRRHCKKYWLISEEEKTQKN [H1F] | 2.34
62 | HDPLERRHCKKYWLISEEEKTQKN [W5E] | 4.07
63 | HDPLTRRHCKKYWLISEEEKTQKN [W5T] | 4.76
64 | HDPLGRRHCKKYWLISEEEKTQKN [W5G] | 3.96
65 | HDPLSRRHCKKYWLISEEEKTQKN [W5S] | 4.08
66 | HDPLKRRHCKKYWLISEEEKTQKN [W5K] | 3.62
67 | HDPLNRRHCKKYWLISEEEKTQKN [W5N] | 3.89
68 | HDPLVRRHCKKYWLISEEEKTQKN [W5V] | 3.81
69 | HDPLARRHCKKYWLISEEEKTQKN [W5A] | 4.33
70 | HDPLIRRHCKKYWLISEEEKTQKN [W5I] | 3.99
71 | HDPLWREHCKKYWLISEEEKTQKN [R7E] | 3.31
72 | HDPLWRSHCKKYWLISEEEKTQKN [R7S] | 3.46

Row | Variant | protein stability index
73 | HDPLWRNHCKKYWLISEEEKTQKN [R7N] | 3.46
74 | HDPLWRLHCKKYWLISEEEKTQKN [R7L] | 3.14
75 | HDPLWRYHCKKYWLISEEEKTQKN [R7Y] | 2
76 | HDPLWRIHCKKYWLISEEEKTQKN [R7I] | 3.14
77 | HDPTWRRHCKKYWLISEEEKTQKN [L4T] | 4.35
78 | HDPEWRRHCKKYWLISEEEKTQKN [L4E] | 2.9
79 | HDPCWRRHCKKYWLISEEEKTQKN [L4C] | 3.51
80 | HDPNWRRHCKKYWLISEEEKTQKN [L4N] | 3.52
81 | HDPQWRRHCKKYWLISEEEKTQKN [L4Q] | 3.88
82 | HDPGWRRHCKKYWLISEEEKTQKN [L4G] | 3.75
83 | HDPFWRRHCKKYWLISEEEKTQKN [L4F] | 3.52
84 | HDPYWRRHCKKYWLISEEEKTQKN [L4Y] | 3.45
85 | HDPHWRRHCKKYWLISEEEKTQKN [L4H] | 3.45
86 | HDPSWRRHCKKYWLISEEEKTQKN [L4S] | 3.87
87 | HDPLWRRHCKKYWLISEEEKFQKN [T21F] | 2.64
88 | HDPLWRRHCKKYWLISEEEKPQKN [T21P] | 3.32
89 | HDPLWRRHCKKYWLISEEEKYQKN [T21Y] | 2.74
90 | HDPLWRRHCKKYWLISEEEKHQKN [T21H] | 2.86
91 | HDPLWRRHCKKYWLISEEEKNQKN [T21N] | 2.95
92 | HDPLWRRHCKKYWLISEEEKDQKN [T21D] | 3.25
93 | HDPLWRRHCKKYWLISEEEKWQKN [T21W] | 2.44
94 | HDPLWRRHCKKYWLISEEEKSQKN [T21S] | 3.03
